In general, IC50 refers to the concentration at which inhibition is half-maximal.

Some targets named below: HLA-A*68:02; HLA-A*02:03; HLA-A*02:06; HLA-A*02:02; HLA-A*02:01.
What all share (experiment): IEDB peptide-MHC binding, purified MHC/competitive/radioactivity; ≥ and ≤ were set here for values at or beyond the usual limits of such assays
[1] abbreviates: source organism: Vaccinia virus WR.
The mark [2] stands for this setting: source organism: Mammarenavirus choriomeningitidis.

Turning to NLILNFLDWI, the IC50 in the assay with HLA-A*68:02 (setting [1]) worked out at 3710 nM; with HLA-A*02:03 (setting [1]), 283 nM; with HLA-A*02:06 (setting [1]) it was 443 nM; in the assay with HLA-A*02:02 (setting [1]), 1690 nM; with HLA-A*02:01 (setting [1]) it was 4390 nM.

Regarding NLLLLFVTI, the IC50 stood at 755 nM with HLA-A*68:02 (source organism: SARS-CoV1); 1600 nM in the assay with HLA-A*02:03 (source organism: SARS-CoV1); 456 nM with HLA-A*02:06 (source organism: SARS-CoV1); 436 nM with HLA-A*02:02 (source organism: SARS-CoV1); 201 nM in the assay with HLA-A*02:01 (source organism: SARS-CoV1).

In the case of NLTQLFKYV, the IC50 stood at 4340 nM in the assay with HLA-A*68:02 (setting [1]); 238 nM with HLA-A*02:03 (setting [1]); 657 nM with HLA-A*02:06 (setting [1]); 320 nM with HLA-A*02:02 (setting [1]); 1180 nM with HLA-A*02:01 (setting [1]).

NLWNTFTRL: the IC50 was 391 nM in the assay with HLA-A*68:02 (source organism: SARS-CoV1); 194 nM in the assay with HLA-A*02:03 (source organism: SARS-CoV1); 166 nM in the assay with HLA-A*02:06 (source organism: SARS-CoV1); 24 nM in the assay with HLA-A*02:02 (source organism: SARS-CoV1); 6.9 nM with HLA-A*02:01 (source organism: SARS-CoV1).

NLYKVYNGI: the IC50 with HLA-A*68:02 (setting [1]) is 1610 nM; with HLA-A*02:03 (setting [1]) it was 62 nM; in the assay with HLA-A*02:06 (setting [1]) it was 817 nM; with HLA-A*02:02 (setting [1]), 408 nM; with HLA-A*02:01 (setting [1]), 451 nM.

Take NMCNSDVSV: the IC50 is 202 nM in the assay with HLA-A*68:02 (setting [1]); 30 nM with HLA-A*02:03 (setting [1]); 97 nM in the assay with HLA-A*02:06 (setting [1]); 80 nM with HLA-A*02:02 (setting [1]); 88 nM with HLA-A*02:01 (setting [1]).

With NMDWRSLTQV, the IC50 worked out at 826 nM with HLA-A*68:02 (setting [1]); 17 nM in the assay with HLA-A*02:03 (setting [1]); 1.7 nM in the assay with HLA-A*02:06 (setting [1]); 100 nM with HLA-A*02:02 (setting [1]); 4.2 nM with HLA-A*02:01 (setting [1]).

For NMINKLYGYA, the half-inhibitory concentration (IC50) with HLA-A*68:02 (setting [1]) turned out to be 292 nM; in the assay with HLA-A*02:03 (setting [1]), 0.44 nM; with HLA-A*02:06 (setting [1]), 137 nM; in the assay with HLA-A*02:02 (setting [1]), 1.6 nM; in the assay with HLA-A*02:01 (setting [1]), 88 nM.

Consider NMLDDFSAGA, for which the IC50 in the assay with HLA-A*68:02 (setting [1]) was found to be 2600 nM; in the assay with HLA-A*02:03 (setting [1]), 161 nM; in the assay with HLA-A*02:06 (setting [1]), 242 nM; in the assay with HLA-A*02:02 (setting [1]), 308 nM; with HLA-A*02:01 (setting [1]), 190 nM.

Regarding NMLRIMASL, the IC50 with HLA-A*68:02 (source organism: SARS-CoV1) amounted to 1310 nM; in the assay with HLA-A*02:03 (source organism: SARS-CoV1) it was 38 nM; in the assay with HLA-A*02:06 (source organism: SARS-CoV1), 50 nM; with HLA-A*02:02 (source organism: SARS-CoV1), 3.4 nM; in the assay with HLA-A*02:01 (source organism: SARS-CoV1), 68 nM.

With NSLILLECFV, the IC50 was found to be 43 nM with HLA-A*68:02 (setting [2]); 47 nM with HLA-A*02:03 (setting [2]); 4.2 nM with HLA-A*02:06 (setting [2]); 1.2 nM with HLA-A*02:02 (setting [2]); 7.4 nM in the assay with HLA-A*02:01 (setting [2]).

Turning to NTCKPTILAT, the IC50 with HLA-A*68:02 (setting [1]) was found to be 1640 nM; with HLA-A*02:03 (setting [1]), 248 nM; with HLA-A*02:06 (setting [1]), 3920 nM; with HLA-A*02:02 (setting [1]), 460 nM; in the assay with HLA-A*02:01 (setting [1]), 4410 nM.

Regarding NTDHPLSINV, the IC50 worked out at 0.67 nM with HLA-A*68:02 (setting [1]); 583 nM in the assay with HLA-A*02:03 (setting [1]); 1.6 nM with HLA-A*02:06 (setting [1]); 388 nM in the assay with HLA-A*02:02 (setting [1]); 307 nM with HLA-A*02:01 (setting [1]).

For the sequence NTIAVITETI, the IC50 in the assay with HLA-A*68:02 (setting [1]) is 2.1 nM; in the assay with HLA-A*02:03 (setting [1]), 56 nM; with HLA-A*02:06 (setting [1]) it was 784 nM; with HLA-A*02:02 (setting [1]), 50 nM; with HLA-A*02:01 (setting [1]), 108 nM.

On to NTIDKSSPL, for which the IC50 with HLA-A*68:02 (setting [1]) came out at 5.7 nM; with HLA-A*02:03 (setting [1]), 27 nM; with HLA-A*02:06 (setting [1]), 19 nM; with HLA-A*02:02 (setting [1]) it was 82 nM; in the assay with HLA-A*02:01 (setting [1]), 972 nM.

As to NTISGNIYSA, the IC50 stood at 0.19 nM with HLA-A*68:02 (setting [1]); 314 nM with HLA-A*02:03 (setting [1]); 393 nM in the assay with HLA-A*02:06 (setting [1]); 269 nM in the assay with HLA-A*02:02 (setting [1]); 640 nM with HLA-A*02:01 (setting [1]).

In the case of NTTTFITVLT, the IC50 with HLA-A*68:02 (setting [1]) is 34 nM; with HLA-A*02:03 (setting [1]) it was 596 nM; with HLA-A*02:06 (setting [1]), 600 nM; in the assay with HLA-A*02:02 (setting [1]), 1960 nM; with HLA-A*02:01 (setting [1]), 559 nM.

Consider NTVGMSIVCI, for which the IC50 with HLA-A*68:02 (setting [1]) turned out to be 198 nM; in the assay with HLA-A*02:03 (setting [1]), 1540 nM; with HLA-A*02:06 (setting [1]) it was 1210 nM; with HLA-A*02:02 (setting [1]), 3020 nM; with HLA-A*02:01 (setting [1]) it was 3260 nM.

Consider NVDIIDLLL, for which the IC50 amounted to 262 nM with HLA-A*68:02 (setting [1]); 4090 nM with HLA-A*02:03 (setting [1]); 22 nM with HLA-A*02:06 (setting [1]); 461 nM with HLA-A*02:02 (setting [1]); 858 nM with HLA-A*02:01 (setting [1]).

Regarding NVFISPASI, the IC50 came to 1.9 nM with HLA-A*68:02 (setting [1]); 0.73 nM with HLA-A*02:03 (setting [1]); 660 nM with HLA-A*02:06 (setting [1]); 202 nM with HLA-A*02:02 (setting [1]); 136 nM in the assay with HLA-A*02:01 (setting [1]).
